Experimental data as given in patent US20240392003A1 (NUMAB THERAPEUTICS, published 2024).
Like-named read-outs stand apart in the source and are kept apart here.

Assays:
[1] = target: T1, human ROR1 expressed on cells (human, UniProt Q01973 30-937); assay: cell-based or functional assay
[2] = target: T1, human ROR1 expressed on cells; assay: flow cytometry, MDA-MB-231 cells, 1 mg/ml hSA
Procedure: After incubation at 4° C. for 1 h in presence of 1 mg/ml of human serum albumin (hSA), plates were washed and incubated with specific detection antibodies.
The binding of MATCH4 molecules to plasma membrane-based human ROR1 was assessed by flow cytometry. The calculated EC₅₀, rel.

[3] = target: T2, recombinant human ROR1 protein (Fc-Tag, Acro Biosystems RO1-H5250) (human, UniProt Q01973 30-406); assay: SPR; hROR1-Fc immobilized (Avidity)
T2 construct: Bought; also called hROR1; recombinant human ROR1 ECD; not shown: Fc tag

[4] = target: T1, human ROR1 expressed on cells; assay: flow cytometry, JIMT-1 cells (ROR1-positive)
[5] = target: T1, human ROR1 expressed on cells; assay: cell-based or functional assay; remark: listed apart in the source
[6] = target: T3, recombinant human CD3 epsilon extra-cellular domain protein (His-Tag, SinoBiological) (human, UniProt P07766 23-126); assay: SPR; hCD3ε immobilized, two-state fit (Ka1)
T3 construct: extracellular domain; Bought; also called hCD3ε; human CD3ε; not shown: His tag

[7] = target: T1, human ROR1 expressed on cells; assay: cell-based or functional assay; remark: listed apart in the source
[8] = target: T4, human ROR1 (Peprotech 160-054) (human, UniProt Q01973 30-406); assay: SPR; MATCH4 captured, hROR1 analyte (Affinity)
T4 construct: Bought, used as analyte; also called hROR1; recombinant human ROR1 protein

[9] = target: T3, recombinant human CD3 epsilon …; assay: SPR; hCD3ε immobilized, two-state fit (kd1)
[10] = target: T3, recombinant human CD3 epsilon …; assay: SPR; hCD3ε immobilized, two-state fit
Procedure: Binding kinetics (including affinity) of the four MATCH4 molecules to recombinant human CD3 epsilon extra-cellular domain protein (hCD3ε; His-Tag, SinoBiological) were determined by SPR analysis on a T200 device (Biacore, Cytiva). Recombinant hCD3ε molecules were covalently immobilized to a carboxymethylated dextran surface (CM5 sensorchip; Biacore, Cytiva) and a titration series of each MATCH4 molecule was injected as analyte. After each analyte injection-cycle, every flow channel on the sensor chip was regenerated (Glycine, pH 2.0 and 3 M MgCl₂), and a new concentration of MATCH4 molecule was injected. […] The apparent dissociation (kd1) and association (kₐ₁) rate constants, the second reaction constants (kₐ₂ and kd2) and the apparent dissociation equilibrium constant (KD) were calculated with the Biacore analysis software (Biacore Evaluation software Version 3.2, Cytiva) using a two-state binding model, and the quality of the fits was monitored based on relative Chi2. The binding level was calculated as the maximum stability binding achieved normalized to the theoretical Rmax.

B1: PRO2592 (bispecific antibody)
chain 1: AQQLTQSPSSLSASVGDRVTITCQASQNVWNNNYLSWFQQKPGKPPKLLIVTASTLASGVSSRFSGSGSGTDFTLTISSLQPEDFATYYCAGGFSGEIRAFGCGTKVTVLGGGGGSGGGGSGGGGSGGGGSQSQLVESGGGLVQPGGSLRLSCAVSGIDLSRNAMSWVRQAPGKCLEWIGIILTSGSTYYASWAKGRFTISKTSTTLDLQMNSLRAEDTAVYFCVRGIASSSLKSFWGQGTLVTVSSGGGGSGGGGSAFELTQSPSSLSASVGDRVTITCQASESINSRLAWYQQKPGQPPKLLIYDASDLTSGVPSRFSGSGSGTDFTLTISSLQPEDFATYYCQGYGGSSTTTFGCGTKLTVLGGGSGGSDIQMTQSPSSLSASVGDRVTITCQSSQSVFSNNYLAWFQQKPGQSPKRLIYSASTLASGVPSRFSGSGSGTDFTLTISSLQPEDFATYYCLGSYACSSADCYVFGTGTKVTVLG
chain 2: AQQLTQSPSSLSASVGDRVTITCQASQNVWNNNYLSWFQQKPGKPPKLLIVTASTLASGVSSRFSGSGSGTDFTLTISSLQPEDFATYYCAGGFSGEIRAFGCGTKVTVLGGGGGSGGGGSGGGGSGGGGSQSQLVESGGGLVQPGGSLRLSCAVSGIDLSRNAMSWVRQAPGKCLEWIGIILTSGSTYYASWAKGRFTISKTSTTLDLQMNSLRAEDTAVYFCVRGIASSSLKSFWGQGTLVTVSSGGGGSGGGGSEVQLVESGGGLVQPGGSLRLSCAASGFSLSSYDMSWVRQAPGKGLAWIGASYASGPTYYASWAKGRFTISRDNSKNTVYLQMNSLRAEDTATYFCARGGWTGTSHSNIWGQGTLVTVSSGGGSGGGSGGGSGEVQLVESGGGLVQPGGSLRLSCAASGFSLSSYAMNWVRQAPGKCLEWIGHINAGDIAYYATWAKGRFTISRDNSKNTVYLQMNSLRAEDTAVYFCARGAGGFSTGPFKLWGQGTLVTVSS
notes: heterodimeric MATCH4, bivalent for ROR1, monovalent for CD3 and hSA; also called MATCH4 with 55-39-G02-sc06 / 19-04-A10-sc06 / 28-21-D09-sc04 / 55-39-G02-sc06
- Avg. % max. CD8 T cell act. (JIMT-1) [1]: 15.5%
- Avg. % max. CD8 T cell act. (MDA-MB-231) [1]: 67%
- Avg. % max. CD8 T cell act. (SKOV3) [1]: 54.7%
- Avg. EC50 (nM) CD8 T cell act. (JIMT-1) [1]: 9.8 nM
- Avg. EC50 (nM) CD8 T cell act. (MDA-MB-231) [1]: 0.011 nM
- Avg. EC50 (nM) CD8 T cell act. (SKOV3) [1]: 1.6 nM
- EC50 [2]: 0.72 nM
- Rel. maximum binding (MFIMATCH4/MFIPRO2213) [2]: 2.41
- rel. EC50 (EC50, PRO2213/EC50, MATCH4) [2]: 0.94
- Kd [3]: 0.0287 nM
- koff [3]: 5.69e-05 s⁻¹
- kon [3]: 1.98e+06 M⁻¹ s⁻¹
- EC50 (read off the curve) [4]: ~0.5 nM
- Avg. % max. lysis (JIMT-1) [5]: 24.9%
- Avg. % max. lysis (MDA-MB-231) [5]: 47.1%
- Avg. % max. lysis (SKOV3) [5]: 44.7%
- Avg. EC50 (nM) CD8 T cell act. (MDA-MB-231) [5]: 0.011 nM
- Avg. EC50 (nM) CD8 T cell act. (SKOV3) [5]: 1.6 nM
- Avg. EC50 (nM) Cytotoxicity (JIMT-1) [5]: 3.3 nM
- Avg. EC50 (nM) Cytotoxicity (MDA-MB-231) [5]: 0.008 nM
- Avg. EC50 (nM) Cytotoxicity (SKOV3) [5]: 5.37 nM
- kon [6]: 430000 M⁻¹ s⁻¹
- Avg. % max. CD4 T cell act. (JIMT-1) [7]: 23%
- Avg. % max. CD4 T cell act. (MDA-MB-231) [7]: 79%
- Avg. % max. CD4 T cell act. (SKOV3) [7]: 75%
- Avg. EC50 (nM) CD4 T cell act. (JIMT-1) [7]: 9.1 nM
- Avg. EC50 (nM) CD4 T cell act. (MDA-MB-231) [7]: 0.005 nM
- Avg. EC50 (nM) CD4 T cell act. (SKOV3) [7]: 0.76 nM
- Kd [8]: 5 nM
- koff [8]: 0.00049 s⁻¹
- kon [8]: 98000 M⁻¹ s⁻¹
- koff [9]: 0.0055 s⁻¹
- Ka2 [10]: 0.0036 s⁻¹
- Kd [10]: 6.3 nM
- Kd2 [10]: 0.0036 s⁻¹
